# The supplement of paper PMC9233669
# This sample holds only a part of the variants without activity.
# Legend:
# biotinyl-Phe-oxazolone = experiment: self-aminoacylation, catalytic enhancement (BFO) (fold over background); higher = more active; k-Seq, kA / k0A0; sequences stand for … in GGGAAUGGAUCCACAUCUACGAAUUC…UUCACUGCAGACUUGACGAAGCUG
# Outline: (§1)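 Working in 50 μL HEPES/NaCl/KCl/MgCl2/CaCl2 buffer with 5% acetonitrile at pH 6.9–7.0, mutagenized RNA pools (0.43 μM; 21-nt variable region) were reacted with 2–1250 μM of each biotinyl-aminoacyl-oxazolone for 90 minutes at room temperature. Streptavidin capture followed, with quantification by triplicate qPCR and Illumina sequencing. Catalytic enhancement is reported as median kA over the uncatalyzed rate, the low-activity peak of a bimodal Gaussian fit to the data.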
# biotinyl-Ile-oxazolone = experiment: self-aminoacylation, catalytic enhancement (BIO) (fold over background); higher = more active; k-Seq, kA / k0A0; sequences stand for … in GGGAAUGGAUCCACAUCUACGAAUUC…UUCACUGCAGACUUGACGAAGCUG
# Outline: as §1
# biotinyl-Met-oxazolone = experiment: self-aminoacylation, catalytic enhancement (BMO) (fold over background); higher = more active; k-Seq, kA / k0A0; sequences stand for … in GGGAAUGGAUCCACAUCUACGAAUUC…UUCACUGCAGACUUGACGAAGCUG
# Outline: as §1
# biotinyl-Val-oxazolone = experiment: self-aminoacylation, catalytic enhancement (BVO) (fold over background); higher = more active; k-Seq, kA / k0A0; sequences stand for … in GGGAAUGGAUCCACAUCUACGAAUUC…UUCACUGCAGACUUGACGAAGCUG
# Outline: as §1
# biotinyl-Leu-oxazolone = experiment: self-aminoacylation, catalytic enhancement (BLO) (fold over background); higher = more active; k-Seq, kA / k0A0; sequences stand for … in GGGAAUGGAUCCACAUCUACGAAUUC…UUCACUGCAGACUUGACGAAGCUG
# Outline: as §1
# biotinyl-Trp-oxazolone = experiment: self-aminoacylation, catalytic enhancement (BWO) (fold over background); higher = more active; k-Seq, kA / k0A0; sequences stand for … in GGGAAUGGAUCCACAUCUACGAAUUC…UUCACUGCAGACUUGACGAAGCUG
# Outline: as §1
Sequence,self-aminoacylation (biotinyl-Phe-oxazolone),self-aminoacylation (biotinyl-Ile-oxazolone),self-aminoacylation (biotinyl-Met-oxazolone),self-aminoacylation (biotinyl-Val-oxazolone),self-aminoacylation (biotinyl-Leu-oxazolone),self-aminoacylation (biotinyl-Trp-oxazolone)
AUCAUCCUGGUCAUCGAGUGA [Fam2.1 aminoacylation ribozyme variant],36.4,4.91,9.33,4.82,10.1,10.5
AUCCACAUAGGUCAUCGGGUG [Fam2.2 aminoacylation ribozyme variant],78.8,5.82,10.1,6.77,12.1,8.91
AUCCACCCAGGUCAUCGGGUG [Fam2.2 aminoacylation ribozyme variant],40,4.15,5.87,5.18,7.15,7.4
AUCCACCUAGGUCAUCGGGAG [Fam2.2 aminoacylation ribozyme variant],1.03,1.88,1.65,2.17,1.68,2.19
AUCCACCUAGGUCAUCGGGUC [Fam2.2 aminoacylation ribozyme variant],5.86,1.72,2.25,2.04,1.93,2.68
AUCCACCUAGGUCAUCGGGUU [Fam2.2 aminoacylation ribozyme variant],71.1,9.74,14.3,7.64,19,12
AUCCACCUAGGUCAUCUGGUG [Fam2.2 aminoacylation ribozyme variant],26.4,2.26,2.77,2.28,3.74,2.77
AUCCACCUAGGUCAUGGGGUG [Fam2.2 aminoacylation ribozyme variant],56.5,3.54,5.64,3.77,6.65,5.9
AUCCACCUCGGUCAUCGGGUG [Fam2.2 aminoacylation ribozyme variant],72.4,5.06,7.86,7,7.66,7.66
AUCCACCUUGGUCAUCGGGUG [Fam2.2 aminoacylation ribozyme variant],45.5,4.12,6.42,5.35,7.29,6.99
AUCCCCCUGGUCAUCGAGUGA [Fam2.1 aminoacylation ribozyme variant],45.2,3.85,5.79,4.12,6.5,7.31
AUCGACCUAGGUCAUCGGGUG [Fam2.2 aminoacylation ribozyme variant],8.6,4.48,5.83,4.44,6.35,6.33
AUGAACCUGGUCAUCGAGUGA [Fam2.1 aminoacylation ribozyme variant],5.16,3.31,5.7,3.17,6.61,6.4
AUGACCAUGGUCAUCGAGUGA [Fam2.1 aminoacylation ribozyme variant],22.1,4.29,7.94,4.28,8.09,9.59
AUGACCCAGGUCAUCGAGUGA [Fam2.1 aminoacylation ribozyme variant],17.9,2.5,4.72,2.5,5.25,5.92
AUGACCCCGGUCAUCGAGUGA [Fam2.1 aminoacylation ribozyme variant],39.9,3.51,6.75,3.3,8.55,6.78
AUGACCCUGCUCAUCGAGUGA [Fam2.1 aminoacylation ribozyme variant],1.52,1.36,1.83,1.43,1.95,2.47
AUGACCCUGGGCAUCGAGUGA [Fam2.1 aminoacylation ribozyme variant],42.4,3.97,7.08,3.32,8.34,7.35
AUGACCCUGGUCAGCGAGUGA [Fam2.1 aminoacylation ribozyme variant],24.2,3.46,4.85,2.94,5.66,6.08
AUGACCCUGGUCAUCGAGAGA [Fam2.1 aminoacylation ribozyme variant],2.57,1.28,1.47,1.34,1.52,1.36
AUGACCCUGGUCAUCGUGUGA [Fam2.1 aminoacylation ribozyme variant],17.4,1.4,2.76,1.5,2.88,2.61
